US20240294607

Tested on: T1, His-Tag-FGG (recombinant human fibrinogen gamma chain with N-terminal His-tag, produced in E. coli)
T1 sequence: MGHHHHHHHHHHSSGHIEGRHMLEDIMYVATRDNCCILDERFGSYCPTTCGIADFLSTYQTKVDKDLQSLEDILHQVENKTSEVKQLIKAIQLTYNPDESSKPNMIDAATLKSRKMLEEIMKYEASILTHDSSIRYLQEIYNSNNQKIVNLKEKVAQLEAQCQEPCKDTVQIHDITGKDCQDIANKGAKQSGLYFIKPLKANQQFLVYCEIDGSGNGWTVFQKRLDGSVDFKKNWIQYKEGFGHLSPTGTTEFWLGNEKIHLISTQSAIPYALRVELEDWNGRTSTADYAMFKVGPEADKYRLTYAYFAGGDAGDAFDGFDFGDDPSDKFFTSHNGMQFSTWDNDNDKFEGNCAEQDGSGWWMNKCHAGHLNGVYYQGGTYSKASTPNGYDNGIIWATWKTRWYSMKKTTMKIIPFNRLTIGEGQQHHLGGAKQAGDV

factor XIII
SDS-PAGE analysis of polymerization (crosslinking) of FGG with factor XIII: recombinant FGG can be crosslinked by factor XIII and produces dimers (about 100 kDa) and higher molecular weight FGG structures
